Results on one substance are retold here after patent US20200405873A1, “PYRROLOBENZODIAZEPINE-ANTIBODY CONJUGATES” (MEDIMMUNE LIMITED, priority 2015, published 2020).

The experiment concerns the target T1, human CD25 (Homo sapiens, UniProt P01589).
T1 sequence (P01589 22-272): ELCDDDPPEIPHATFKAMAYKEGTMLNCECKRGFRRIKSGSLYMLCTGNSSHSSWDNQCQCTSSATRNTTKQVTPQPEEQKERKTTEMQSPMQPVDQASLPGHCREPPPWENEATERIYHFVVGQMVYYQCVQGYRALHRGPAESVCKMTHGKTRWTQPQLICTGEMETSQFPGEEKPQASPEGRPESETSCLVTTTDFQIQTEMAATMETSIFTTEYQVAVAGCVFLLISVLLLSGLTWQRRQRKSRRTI
The experiment can be described thus: Binding of ADCT-301 to human CD25. The conditions noted are these: stated in words only.

“ADCT-301: ADC of human anti-CD25 monoclonal antibody HuMax-TAC conjugated through a cleavable linker to PBD dimer cytotoxin SG3199”: the “affinity to human CD25” value is “picomolar”.
